In patent publication US20220127350A1 (NUMAB THERAPEUTICS, published 2022):

How the values were obtained:
human TNFα [1] = target: T1, human TNFα (human, UniProt P01375 77-233); experiment: cell-based or functional assay
human IL-17A [2] = target: T2, human IL-17A (human, UniProt Q16552 24-155, limits assumed); experiment: cell-based or functional assay
human TNFα [3] = target: T1, human TNFα; experiment: cell-based or functional assay; remark: listed apart in the source
human TNFα [4] = target: T1, human TNFα; experiment: SPR (summary table), affinity to human TNF
Description: (§1) In this experiment, the biotinylated antigens were captured using the Biotin-CAPture kit from Biacore. After each analyte injection cycle the CAP sensor chip was regenerated and new antigen was captured. Trispecific molecules were injected as analyte using a dose response multicycle kinetic assay with concentrations of the analyte ranging from 0.35 to 90 nM diluted in running buffer. Obtained sensorgrams were fitted using the 1:1 binding model.

human serum albumin [5] = target: T3, human serum albumin (human, UniProt P02768 25-609); experiment: SPR (summary table), affinity to HSA at pH 5.5
T3 construct: also called HSA
Description: (§2) The binding to human serum albumin (HSA) and cynomolgus serum albumin (CSA) was assessed for purified trispecific molecules by running SPR spectroscopy on a MASS-1 device (Sierra Sensors). HSA was directly immobilized on a high capacity amine sensor chip (Sierra Sensors) and trispecific molecules were injected as analyte using a dose response multicycle kinetic assay with concentrations of the analyte ranging from 0.35 to 90 nM diluted either in running buffer at pH5.5 or pH7.5. Obtained sensorgrams were fitted using the 1:1 binding model. Affinity to CSA was assessed in a similar approach using a CSA immobilized sensor chip.

human IL-17A [6] = target: T2, human IL-17A; experiment: SPR (summary table), affinity to human IL-17, capture setup
Description: as §1

human serum albumin [7] = target: T3, human serum albumin; experiment: SPR (MASS-1), HSA immobilised, trispecific as analyte, pH 5.5
Description: as §2

human serum albumin [8] = target: T3, human serum albumin; experiment: SPR (MASS-1), HSA immobilised, trispecific as analyte, pH 7.4
Description: as §2

human serum albumin [9] = target: T3, human serum albumin; experiment: SPR (MASS-1), trispecific immobilised, HSA injected as last analyte
Description: (§3) All possible sequences of antigen injection were tested resulting in six possible sequences.
(§4) To evaluate concomitant binding of each antigen to trispecific molecules, the binding level relative to the theoretical Rmax was calculated for each injection using the respective ligand and analyte molecular masses and the immobilization level of the trispecific molecules. The average of the maximum binding relative to theoretical Rmax for each antigen was obtained by averaging individual maximum binding relative to theoretical Rmax obtained for the two injections where the respective antigen was injected as first analyte (in the absence of other bound antigens). Next, the binding relative to the theoretical Rmax of each analyte injection was compared to its average maximum binding to calculate the fraction binding obtained in the presence of other bound antigens. […] The binding levels relative to the theoretical Rmax and the average of maximum binding (binding levels in the absence of other antigens) of each antigen were calculated.

human IL-17A [10] = target: T2, human IL-17A; experiment: SPR (MASS-1), trispecific immobilised, antigens injected sequentially
Description: as §3, §4

human TNFα [11] = target: T1, human TNFα; experiment: as above
Description: as §3, §4

human serum albumin [12] = target: T3, human serum albumin; experiment: as above
Description: as §3, §4

human IL-17A [13] = target: T2, human IL-17A; experiment: competitive ELISA, blocking of IL-17A/IL-17RA interaction (summary table)
Description: (§5) Finally, Tetramethylbenzidine solution was added to develop the plate for 5 to 10 minutes and the reaction was stopped with 1 M HCl. The plate was read at 450 nm and 570 nm (reference wavelength).

human IL-17A [14] = target: T2, human IL-17A; experiment: SPR (Biacore T200), biotinylated antigen captured (Biotin-CAPture), trispecific as analyte;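 further: multicycle dose-response kinetics, analyte at 0.35–90 nM in running buffer, CAP chip regenerated with fresh antigen each cycle, sensorgrams fitted to a 1:1 binding model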
Description: as §1

human TNFα [15] = target: T1, human TNFα; experiment: as above
Description: as §1

human IL-17A [16] = target: T2, human IL-17A; experiment: competitive ELISA: IL-17RA coated, biotinylated IL-17A preincubated with trispecific molecule
Description: as §5

human IL-17A [17] = target: T2, human IL-17A; experiment: competitive ELISA: biotinylated human IL-17A preincubated with the trispecific molecule, then binding to coated IL-17RA detected (blocked ligand: IL-17RA) [right panel]
cynomolgus serum albumin [18] = target: T4, cynomolgus serum albumin (cynomolgus monkey, UniProt A2V9Z4 25-608); experiment: SPR (MASS-1), CSA immobilised, trispecific as analyte, pH 5.5
T4 construct: also called CSA
Description: as §2

cynomolgus serum albumin [19] = target: T4, cynomolgus serum albumin; experiment: SPR (MASS-1), CSA immobilised, trispecific as analyte, pH 7.4
Description: as §2

cynomolgus monkey IL-17A = target: T5, cynomolgus monkey IL-17A (Macaca fascicularis (cynomolgus monkey)); experiment: SPR (Biacore T200), biotinylated antigen captured (Biotin-CAPture), trispecific as analyte;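 further: multicycle dose-response kinetics, analyte at 0.35–90 nM in running buffer, CAP chip regenerated with fresh antigen each cycle, sensorgrams fitted to a 1:1 binding model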
T5 construct: also called cyno IL-17A; cyno IL17A
Description: as §1

Binder | IC50 in L929 assay, cell viability (human TNFα [1]) [nM] | rel. IC50 in L929 assay (IC50, A13/IC50, test sample, nM) (human TNFα [1]) | rel. IC50 to secukinumab (ng/ml) in HT-29 assay, +HSA (human IL-17A [2]) | rel. IC50 to secukinumab (ng/ml) in HT-29 assay, -HSA (human IL-17A [2]) | rel. IC50 to A13 (nM) in HT-29 assay, +HSA (human TNFα [3]) | rel. IC50 to A13 (nM) in HT-29 assay, -HSA (human TNFα [3]) | Kd (human TNFα [4]) [nM] | Kd (human serum albumin [5]) [nM] | Kd (human IL-17A [6]) [nM] | Kd (human serum albumin [7]) [nM] | koff (human serum albumin [7]) [s⁻¹] | kon (human serum albumin [7]) [M⁻¹ s⁻¹] | Kd (human serum albumin [8]) [nM] | koff (human serum albumin [8]) [s⁻¹] | kon (human serum albumin [8]) [M⁻¹ s⁻¹] | relative binding level compared to average maximum binding (human serum albumin [9]) [%] | antigen binding relative to average maximum binding (human IL-17A [10]) [%] | antigen binding relative to average maximum binding (human TNFα [11]) [%] | antigen binding relative to average maximum binding (human serum albumin [12]) [%] | rel. IC50 (IC50, secukinumab/IC50, test sample, ng/ml) (human IL-17A [13]) | further results
A6 (trispecific scDb-scFv) (other, Single chain) DIQMTQSPSSLSASVGDRVTITCQASQTINYWLAWYQQKPGKAPKLLIYRASTLASGVPSRFSGSGSGTDFTLTISSLQPEDFATYYCQNYYYSTSRSYGFGGGTKLTVLGGGGGSEVQLVESGGGLVQPGGSLRLSCAASGFSLSSNAMGWVRQAPGKGLEYIGIISVGGFTYYASWAKGRFTISRDNSKNTVYLQMNSLRAEDTATYFCARDRHGGDSSGAFYLWGQGTLVTVSSGGGGSGGGGSGGGGSGGGGSDIQMTQSPSSLSASVGDRVTITCQSSESVYSNNQLSWYQQKPGQPPKLLIYDASDLASGVPSRFSGSGSGTDFTLTISSLQPEDFATYYCAGGFSSSSDTAFGGGTKLTVLGGGGGSEVQLVESGGGLVQPGGSLRLSCAASGFSFSSDYWMCWVRQAPGKGLEWIGCIYAGDVDDTDYASWARGRFTISRDNSKNTVYLQMNSLRAEDTAVYYCARVDGFDITYFDLWGQGTLVTVSSGGGGSGGGGSDIQMTQSPSSLSASVGDRVTINCQASESISSWLAWYQQKPGKRPKLLIYKASTLASGVPSRFSGSGSGTDYTLTISSLQPEDFATYYCQGYYLDSSVDDNVFGGGTKLTVLGGGGGSGGGGSGGGGSGGGGSEVQLVESGGGLVQPGGSLRLSCAASGIDFSTYGISWVRQAPGKGLEWIAYIYPDYGITDYASWVNGRFTISLDNAQNTVYLQMNSLRAEDTAVYYCARSGSYYSRGWGAHYFNLWGQGTLVTVSS | 0.06 | 0.2 | 26.8 | 30 | 1 | 0.6 | 0.0237 | 0.77 | 0.414 | 0.77 | 0.000365 | 475000 | 1.25 | 0.000332 | 266000 | ~70 | ≥ 70 | ≥ 70 | ≥ 70 | 10 | Kd (human IL-17A [14]): 0.414 nM; koff (human IL-17A [14]): 8.96e-05 s⁻¹; kon (human IL-17A [14]): 216000 M⁻¹ s⁻¹; Kd (human TNFα [15]): 0.0237 nM; koff (human TNFα [15]): 2.66e-06 s⁻¹; kon (human TNFα [15]): 112000 M⁻¹ s⁻¹; rel. IC50 to secukinumab (IC50, secukinumab/IC50, test sample, ng/ml) (human IL-17A [16]): 10; IC50 (read off the curve) (human IL-17A [17]): ~5 ng/mL
A7 (trispecific scDb-scFv) (other, Single chain; also called scDb-scFv A7) DIQMTQSPSSLSASVGDRVTINCQASESISSWLAWYQQKPGKRPKLLIYKASTLASGVPSRFSGSGSGTDYTLTISSLQPEDFATYYCQGYYLDSSVDDNVFGGGTKLTVLGGGGGSEVQLVESGGGLVQPGGSLRLSCAASGFSFSSDYWMCWVRQAPGKGLEWIGCIYAGDVDDTDYASWARGRFTISRDNSKNTVYLQMNSLRAEDTAVYYCARVDGFDITYFDLWGQGTLVTVSSGGGGSGGGGSGGGGSGGGGSDIQMTQSPSSLSASVGDRVTITCQASQTINYWLAWYQQKPGKAPKLLIYRASTLASGVPSRFSGSGSGTDFTLTISSLQPEDFATYYCQNYYYSTSRSYGFGGGTKLTVLGGGGGSEVQLVESGGGLVQPGGSLRLSCAASGIDFSTYGISWVRQAPGKGLEWIAYIYPDYGITDYASWVNGRFTISLDNAQNTVYLQMNSLRAEDTAVYYCARSGSYYSRGWGAHYFNLWGQGTLVTVSSGGGGSGGGGSDIQMTQSPSSLSASVGDRVTITCQSSESVYSNNQLSWYQQKPGQPPKLLIYDASDLASGVPSRFSGSGSGTDFTLTISSLQPEDFATYYCAGGFSSSSDTAFGGGTKLTVLGGGGGSGGGGSGGGGSGGGGSEVQLVESGGGLVQPGGSLRLSCAASGFSLSSNAMGWVRQAPGKGLEYIGIISVGGFTYYASWAKGRFTISRDNSKNTVYLQMNSLRAEDTATYFCARDRHGGDSSGAFYLWGQGTLVTVSS | 0.01 | 1 | 64.5 | 52 | 1 | 4.8 | 0.122 | 1.32 | 0.341 | 1.32 | 0.000373 | 284000 | 1.91 | 0.000369 | 193000 | ~70 | ≥ 70 | ≥ 70 | ≥ 70 | 10.6 | Kd (cynomolgus serum albumin [18]): 0.463 nM; koff (cynomolgus serum albumin [18]): 0.000147 s⁻¹; kon (cynomolgus serum albumin [18]): 318000 M⁻¹ s⁻¹; Kd (cynomolgus serum albumin [19]): 1.31 nM; koff (cynomolgus serum albumin [19]): 0.000215 s⁻¹; kon (cynomolgus serum albumin [19]): 164000 M⁻¹ s⁻¹; Kd (human IL-17A [14]): 0.341 nM; koff (human IL-17A [14]): 7.83e-05 s⁻¹; kon (human IL-17A [14]): 229000 M⁻¹ s⁻¹; Kd (cynomolgus monkey IL-17A): 0.223 nM; koff (cynomolgus monkey IL-17A): 5.89e-05 s⁻¹; kon (cynomolgus monkey IL-17A): 264000 M⁻¹ s⁻¹; Kd (human TNFα [15]): 0.122 nM; koff (human TNFα [15]): 3.59e-05 s⁻¹; kon (human TNFα [15]): 296000 M⁻¹ s⁻¹; rel. IC50 to secukinumab (IC50, secukinumab/IC50, test sample, ng/ml) (human IL-17A [16]): 10.6; IC50 (read off the curve) (human IL-17A [17]): ~5 ng/mL
